Experiment [1] has as its target VH-9.7 antigen on human patient-derived glioblastoma stem-like cells (GSC lines 12.1, 22, 33, 44, 99). Put plainly: flow cytometry on cells dissociated from 44 GSC orthotopic xenografts, 125 nM predimerized VH-9.7. (In general: A flow cytometer gives signals particle by particle.)
Experiment [2] has the same target. The experiment can be described thus: flow cytometry titration of monomeric VH-9.7 on live 33 GSC, one-site equilibrium fit, four independent titrations.

For 1 molecule, percent of cells labelled and Kd results are on record in patent US20240018263A1.

B1: VH-9.7-CMYC-HIS6 (soluble, purified single domain antibody VH-9.7) (antibody, V domains shown)
VH: QVQLVESEAEVKKPGASVKVSCKASGYSFTNYYMHWVRQAPGQGLEWMGLIDPSGTSTTYAQKFQGRVTMTRDTSASTVYMELTSLRSEDTAMYYCVGEESGSGSFSDWGQGTLVTVSS
For orientation: Kd means the concentration at which binding is half-saturated. Read a low Kd as a tighter complex. For the molecule B1, in experiment [1], the percent of cells labelled stood at 17.9%. For the same molecule, in experiment [2], the Kd was determined as 74.3 nM.
